Experimental data reported in patent publication US20240067725A1.

Molecular target: full-length human LAG-3 expressed on cells (human) (UniProt P18627)
Assay: cell-based or functional assay

Chain of full-length human LAG-3 expressed on cells (human) (P18627 23-525 limits assumed): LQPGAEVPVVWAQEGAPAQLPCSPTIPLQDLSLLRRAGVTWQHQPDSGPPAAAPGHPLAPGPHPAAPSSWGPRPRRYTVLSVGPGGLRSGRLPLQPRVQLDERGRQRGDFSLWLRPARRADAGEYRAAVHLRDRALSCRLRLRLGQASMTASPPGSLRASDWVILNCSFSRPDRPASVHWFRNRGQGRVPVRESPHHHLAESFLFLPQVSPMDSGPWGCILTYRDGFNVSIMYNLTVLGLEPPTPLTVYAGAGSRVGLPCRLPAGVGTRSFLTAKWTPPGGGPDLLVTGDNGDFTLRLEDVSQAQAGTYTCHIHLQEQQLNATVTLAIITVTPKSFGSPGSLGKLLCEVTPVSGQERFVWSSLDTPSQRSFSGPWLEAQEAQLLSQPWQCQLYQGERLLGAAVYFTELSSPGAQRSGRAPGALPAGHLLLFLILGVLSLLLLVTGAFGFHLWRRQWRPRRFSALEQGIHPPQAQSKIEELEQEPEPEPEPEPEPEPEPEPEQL

EC50 (nM), IL-2 luciferase reporter gene assay: 2.65 nM
B1: BMK7 (antibody, from another filing, V domains shown)
VH: QVQLVESGGGVVQPGRSLRLSCVASGFTFSSYGMHWVRQAPGKGLEWVAIIWYDGSNKYYADSVKGRFTISRDNSKNTQYLQMNSLRAEDTAVYYCASVATSGDFDYYGMDVWGQGTTVTVSS
VL: EIVLTQSPATLSLSPGERTTLSCRASQRISTYLAWYQQKPGQAPRLLIYDASKRATGIPARFSGSGSGTGFTLTISSLEPEDFAVYYCQQRSNWPLTFGGGTKVEIK
